This is an account of results in the DeepSol protein solubility set.

This series can be described thus: soluble on expression in E. coli; label from the status in PepcDB or PDB records.
Take “AAPDEITTAWPVNVGPLNPHLYTPNQMFAQSMVYEPLVKYQADGSVIPWLAKSWTHSEDGKTWTFTLRDDVKFSNGEPFDAEAAAENFRAVLDNRQRHAWLELANQIVDVKALSKTELQITLKSAYYPFLQELALPRPFRFIAPSQFKNHETMNGIKAPIGTGPWILQESKLNQYDVFVRNENYWGEKPAIKKITFNVIPDPTTRAVAFETGDIDLLYGNEGLLPLDTFARFSQNPAYHTQLSQPIETVMLALNTAKAPTNELAVREALNYAVNKKSLIDNALYGTQQVADTLFAPSVPYANLGLKPSQYDPQKAKALLEKAGWTLPAGKDIREKNGQPLRIELSFIGTDALSKSMAEIIRADMRQIGADVSLIGEEESSIYARQRDGRFGMIFHRTWGAPYDPHAFLSSMRVPSHADFQAQQGLADKPLIDKEIGEVLATHDETQRQALYRDILTRLHDEAVYLPISYISMMVVSKPELGNIPYAPIATEIPFEQIKPVKP”: the “soluble on expression in E. coli” value is “soluble”.

“MGSDKIHHHHHHMKVILHIGAHRCATRSFQNYMTRKSDTLSQYGIAFMGPERTRNGLLHGIQPGAISVTGRDPMARARGRIALQLAGLQNAGTASVVISDASMLQPLEQCFALGALYPAAGEHLARLDHAFDGAVSDVMLNIRSPEMFWASALAVRLEHSLRMPNAATLSRIAEATRSWRDVIQDIYCAMPGARIRVFPYEVFATQPEAQLSAVTGVDCPHARGAFRLNASARLPELRAELPPRLAKLLPEDEGRWMPFSEAEAARLRESYYDDMMWLVGGADGLAELVEDPNKADATATPPAPDLVVQEDLTRGRMHDPDTGRLAGTG”: the “soluble on expression in E. coli” value is recorded as “not soluble”.

Take “MSLEFQLDLIRGEHMEIEKLLEQVNWEKNNGIVPVIVQDEKGEVLTLAYMNKEALRKTLETGIAHYYSRSKGRIRMKGEVSGNIQTVKEIKIDCDNDALLLIVSPKGPACHTGNYSCFYRKLGEPERVLPIDYSLSILKELEEIIKRRKETPVEGSYTSKLFKEGREKIYKKFGEEAIEVLVAEKRERIIYEVADLLYHLLVLLTYNDISLGEVMNELRRRRKEGHHHHHH”: the “soluble on expression in E. coli” value is recorded as “soluble”.

Regarding “SKREHNHRRITVTAAIGNKHRRQLATNLHAIEHHAFEHFIAWVAENHFEPEADCKLGTRLRHAGVPGQQ”, the “soluble on expression in E. coli” value was “soluble”.

Regarding “MGSDKIHHHHHHMNVHVAVQTQAHRLDSNTAAFARDVLDGLTKPQKELSPKYFYDDTGSELFVEITRLPEYYPTRTELGILRDRAAEIAALIPPDAAIVEFGAGATTKIRLLLAAHQVAAYVPVDISGDFIITQAEALQRDFPQLAVHPLAADFTKPFALPPAVRDLPKVGFFPGSTIGNFEPQEARRFLESARDILGRGARMIIGVDLEKDENVLVPAYDDAAGVTGKFNLNLLIRINRELGADFDLSAFAHRAIYNRDQHRIEMHLVSLRDQSVHLFGERIGFRAGESIHTENSYKYSLERFRALAQQAGWTPARCWTDADAMFSVHAIETNGSRV”, the “soluble on expression in E. coli” value is listed as “not soluble”.

On to “LGSVKPATCEKPKFLEYKTCVGDLAVVIAKALDEFKEFCIVNAANEHMSHGGGVAKAIADFCGPDFVEYCADYVKKHGPQQKLVTPSFVKGIQCVNNVVGPRHGDSNLREKLVAAYKSVLVGGVVNYVVPVLSSGIFGVDFKISIDAMREAFKGCAIRVLLFSLSQEHIDYFDATCK”, for which the “soluble on expression in E. coli” value is reported as “soluble”.

Consider “MTELRVYLLIEALQPQFAACLSSPTRARGYPAFAGQSSLIIEVSPALAIHRVTDLALKSAPAMEPGILYTERQFGLLELHADSLEKLNAAGQAILDGMGAKPEDQLKPQILYHDIIENLSDQHAIILNRSREASILVPGVALLIYEMAPALFACVAANEAERAVPRAVINDVQMMGATGRVFMSGSLAEMRLARETITAKLESIPGRQ”, for which the “soluble on expression in E. coli” value is given as “not soluble”.

“AMEDELKILIGKMRYRSSFGQNALQHSKEVALLAGLIAEQLGGDKKLARRAGILHDIGKALTQELGRDHVNLGVEVCKRHKEDPVVINAIYAHHGHEEILSVECASVCAADALSAGRPGARRKSDEEYAKRMQALEEIALEFDGVEKAYAMESGRELRVIVKSNQ”: the “soluble on expression in E. coli” value was “not soluble”.

In the case of “MGSDKIHHHHHHMLHIVNNLRDSFTPGTPHQAALAQIFPQDSEKQTMDKRDLSAIFRERLKLLLTRSDLNQSAFASAVGIDRSALSQLMSGASTRLPRAETLLNIAAEFKVSLDWLLGLSQDEGVTGEIRESLEIEEAPDGFDRTLLAKWFAEAAGTKIRYVPAGIPDLLRTRALVDYEANITNRSRLAQASETQYRIEYNRRPETDMEVCMPRHTLEIFARGLGVWDRFPEADRRQQLAHMATLLDDLYPTFRLFLYDGRMRYSIPLTIFGPYRAAIYVGDMYVVLNATQPVQALTQHFDNLIRAADVNPHEAAAFARNLAGMSFPSGSV”, the “soluble on expression in E. coli” value is on record as “not soluble”.

Take “MSLTNFSQQHLPLVEKVMVDFIAEYTENERLKEAMLYSIHAGGKRLRPLLVLTTVAAFQKEMETQDYQVAASLEMIHTYSLIHDDLPAMDDDDLRRGKPTNHKVFGEATAILAGDGLLTGAFQLLSLSQLGLSEKVLLMQQLAKAAGNQGMVSGQMGDIEGEKVSLTLEELAAVHEKKTGALIEFALIAGGVLANQTEEVIGLLTQFAHHYGLAFQIRDDLLDATSTEADLGKKVGRDEALNKSTYPALLGIAGAKDALTHQLAEGSAVLEKIKANVPNFSEEHLANLLTQLQLREGHHHHHH”: the “soluble on expression in E. coli” value is “soluble”.

Regarding “MVLADGELTVLGRIRSASNATFLCESTLGLRSLHCVYKPVSGERPLWDFPDGTLAGRELSAYLVSTQLGWNLVPHTIIRDGPAGIGMLQLWVQQPGDAVDSDPLPGPDLVDLFPAHRPRPGYLPVLRAYDYAGDEVVLMHADDIRLRRMAVFDVLINNADRKGGHILCGIDGQVYGVDHGLCLHVENKLRTVLWGWAGKPIDDQILQAVAGLADALGGPLAEALAGRIAAAEIGALRRRAQSLLDQPVMPGPNGHRPIPWPAFLEHHHHHH”, the “soluble on expression in E. coli” value is recorded as “not soluble”.

For “MTQHPFISRVAVRNYKSIGYCDVNLRPLTYLVGHNGAGKSNFMDALHFVCDALSYSLDSALNERGGINEVRRRSGGHPTHFALRVEFVMQSGQAGRYGFVIGALKNGGYEVQREECVVAGIGKGPFFRIEKGKLRDSSETTFPSVTADRLALVAASGLTAFRPVFDALTAMGFYNLNPKLMRELQKPQDGRLLRPAGENIASVIGHLEKVAPAQMALIQEYLHSVAPMVHGVERKPIGPMETLEFRQDMAGSKHPWRFLAQNMSDGTLRALGVLSALLQGNVDYSPTLIGIEEPETALHPAASAALREALVRASETTQVLVTSHSPDLLDDHSIDADAVLAVVSEAGETKVAPLDEGSRQVMRDHLFSAGELLRMNQLAPDRASLEQQDKAASGDLFGETESVLEHHHHHH”, the “soluble on expression in E. coli” value is listed as “soluble”.

For the sequence “MGHHHHHHSHMNILFLQWKVKLPPQKEVITSDELMAHLGNCLLSIKPQEKSEGLQLNFQQNVDDAMTVLPKLATGLDVNVRFTGVSDFEYTPECSVFDLLGIPLYHGWLVDPQSPEAVRAVGKLSYNQLVERIITCKHSSDTNLVTEGLIAEQFPETTAAQLTYHGLCELTAAAKEGELSVFFRNNHFSTMTKHKSHLYLLVTDQGFLQEEQVVWESLHNVDGDSCFCDSDFHLRHSLGKGPGAEGGSGSPEKQLQVDQDYLIALSLQQQQPRGPLGLTDLELAQQLQQEEYQQQQAAQPVRMRTRVLSLQGRGATSGRPAGERRQRPKHESDCILL”, the “soluble on expression in E. coli” value is “not soluble”.

Consider “MGSDKIHHHHHHMTTIPSTAEAKLEMLTTINRAIAGSRPEALPPYPVPAPLSRAEILHQFEDRILDYGAAYTHVSAAELPGAIAKALGNARRVIVPAGIPAPWLTVGMDVLRDEPPLSHAELDRADAVLTGCAVAISETGTIILDHRADQGRRALSLIPDFHICVVREDQIVQTVREGVEAVAASVREGRPLTWLSGGSATSDIELVRVEGVHGPRRLQVIVVG”, for which the “soluble on expression in E. coli” value is “soluble”.

Regarding “MLSEWQNHKAQLRNYVYKRVDDASAVDDILQDVYIKASSNLHQLKSKGSLKGWLYKIAYNTIMDFYRDKLPYDELPEDLVAEDEDAVEESRKEIAECMRPLIDELPDKYSVPLRLAELDGIPQQEIADKLGLSLSGAKSRIQRGRVKFRENLMTCCDFEINDGGMVTGYTPKKTNCSSPKR”, the “soluble on expression in E. coli” value was “not soluble”.

Take “MISRTQRLLSLSTAMLLATTAAAVAEPSEELIAAAKKEGTLTTIALPHNWCGYGDVIAGFKAKYGIEVNELNPDAGSGDEIEAIKANKGNTGPQAPDVIDVGLSFGPSAKAEGLIQPYKVSTWDTIPDTAKDPEGYWYGDYYGVLSFVVNTDIVKDVPKDWADLKKSDYANSVALAGDPRASNQAVQAVYAAGLAAGETDAAKAGEAGLAFFAEVNKAGNFVPVIGKSASLAQGSTPIIIAWDYNGLSWRDSLNGNPPVEVVVPASGVVAGVYVQAISAFAPHPNAAKLWMEYLYSDEGQLGWLKGYCHPIRFNDLVKNGKVPKEMLDKLPPAESYEKAVFPTLDEQAKGKEAITTKWDSVVGASVQ”: the “soluble on expression in E. coli” value is on record as “not soluble”.

Turning to “VWRTREAVVACIDADPHAEHVLRSAHRLAQQLDCEWHAITIEAPRVAPLPRAGRARLDQALALAETLGAHVETVAGTDMVDAATRYMRRHNITKAVVGRDAWRRRGLSGLL”, the “soluble on expression in E. coli” value is recorded as “not soluble”.

As for “MGSDKIHHHHHHAKSVATTEHLKRYTEAISHDSCQGRKPFSEGADRAVNYIAHQMKEVGLKPINGDSYFQQVNIISSRTRCPDPMVLKTPKGKIPLDWLEGYTAFSARIEPEIDIDNAELVFAGYGIVAPEYGKNDFEGIENPQDKVAVVIVNDPGLGSDNTDYFNGDIMTYYGRWMYKFEEGARQGLKGVLIIHEDRGAGYPWSVVRASAQSKMYVDSDSDAYHCPLNGWIQFNAAKQLLADNGYDIDQLIEQSKSPDFKPISLKSTVTVSMRNTFDRQQSPNVIGYIPGSGNTDESVIYLGHWDHLGYGAPINGDSIINGATDNAVAIAWMLEMARCFNVLKEKPRRNIVFLSPTCEETGFLGTKYYVEHPLFPIDKIAAVINLDVFPLWGENNDVTITGYGNSELDDTLAELAKKYNRYIMPDPDAYNGMFYRSDHFPFVQKGIPAMFAKGWNDNRKQGKEWAKEHIAHYWAETYHKPTDQTHPDTDDYSGLLQEVQLFFDLGYKLAQDTGYPKWKPKSEFANVLKR”, the “soluble on expression in E. coli” value is “not soluble”.

For the sequence “MNLVELGSKTAKDGFKNEKDIADRFENWKENSEAQDWLVTMGHNLDEIKSVKAVVLSGYKSDINVQVLVFYKDALDIHNIQVKLVSNKRGFNQIDKHWLAHYQEMWKFDDNLLRILRHFTGELPPYHSNTKDKRRMFMTEFSQEEQNIVLNWLEKNRVLVLTDILRGRGDFAAEWVLVAQKVSNNARWILRNINEVLQHYGSGDISLSPRGSINFGRVTIQRKGGDNGRETANMLQFKIDPTELFDI”, the “soluble on expression in E. coli” value is “soluble”.

As to “MGSDKIHHHHHHMSIEAKFKKLGTDNAPGQEVRQSAAGLEALIRGAPIEGRPVDFSHGDVDAHEPTPGAFDLFSAGVQSGGVQAYTEYRGDLGIRDLLAPRLAAFTGAPVDARDGLIITPGTQGALFLAVAATVARGDKVAIVQPDYFANRKLVEFFEGEMVPVQLDYVSADETRAGLDLTGLEEAFKAGARVFLFSNPNNPAGVVYSAEEIGQIAALAARYGATVIADQLYSRLRYAGASYTHLRAEAAVDAENVVTIMGPSKTESLSGYRLGVAFGSRAIIARMEKLQAIVSLRAAGYSQAVLRGWFDEAPGWMEDRIARHQAIRDELLHVLRGCEGVFARTPQAGSYLFPRLPKLAVAPAEFVKILRLQAGVVVTPGTEFSPHTADSVRLNFSQDHEAAVAAARRIVTLVERYRA”, the “soluble on expression in E. coli” value was “not soluble”.

For “MGSDKIHHHHHHMGLFDFLKKGLQKTKETFFGRVVKLLKGKKLDDETREELEELLIQADVGVETTEYILERLEEKDGDALESLKEIILEILNFDTKLNVPPEPPFVIMVVGVNGTGKTTSCGKLAKMFVDEGKSVVLAAADTFRAAAIEQLKIWGERVGATVISHSEGADPAAVAFDAVAHALARNKDVVIIDTAGRLHTKKNLMEELRKVHRVVKKKIPDAPHETLLVIDATTGQNGLVQAKIFKEAVNVTGIILTKLDGTAKGGITLAIARELGIPIKFIGVGEKAEDLRPFDPEAFVEVLLSE”, the “soluble on expression in E. coli” value was “soluble”.
